These results are taken from article PMC3988258.

The target in this experiment is GFP-NAIP2 (mouse) (UniProt Q9QUK4). The experiment can be described thus: co-IP.
Sequence of UniProt Q9QUK4 (Q9QUK4 whole entry): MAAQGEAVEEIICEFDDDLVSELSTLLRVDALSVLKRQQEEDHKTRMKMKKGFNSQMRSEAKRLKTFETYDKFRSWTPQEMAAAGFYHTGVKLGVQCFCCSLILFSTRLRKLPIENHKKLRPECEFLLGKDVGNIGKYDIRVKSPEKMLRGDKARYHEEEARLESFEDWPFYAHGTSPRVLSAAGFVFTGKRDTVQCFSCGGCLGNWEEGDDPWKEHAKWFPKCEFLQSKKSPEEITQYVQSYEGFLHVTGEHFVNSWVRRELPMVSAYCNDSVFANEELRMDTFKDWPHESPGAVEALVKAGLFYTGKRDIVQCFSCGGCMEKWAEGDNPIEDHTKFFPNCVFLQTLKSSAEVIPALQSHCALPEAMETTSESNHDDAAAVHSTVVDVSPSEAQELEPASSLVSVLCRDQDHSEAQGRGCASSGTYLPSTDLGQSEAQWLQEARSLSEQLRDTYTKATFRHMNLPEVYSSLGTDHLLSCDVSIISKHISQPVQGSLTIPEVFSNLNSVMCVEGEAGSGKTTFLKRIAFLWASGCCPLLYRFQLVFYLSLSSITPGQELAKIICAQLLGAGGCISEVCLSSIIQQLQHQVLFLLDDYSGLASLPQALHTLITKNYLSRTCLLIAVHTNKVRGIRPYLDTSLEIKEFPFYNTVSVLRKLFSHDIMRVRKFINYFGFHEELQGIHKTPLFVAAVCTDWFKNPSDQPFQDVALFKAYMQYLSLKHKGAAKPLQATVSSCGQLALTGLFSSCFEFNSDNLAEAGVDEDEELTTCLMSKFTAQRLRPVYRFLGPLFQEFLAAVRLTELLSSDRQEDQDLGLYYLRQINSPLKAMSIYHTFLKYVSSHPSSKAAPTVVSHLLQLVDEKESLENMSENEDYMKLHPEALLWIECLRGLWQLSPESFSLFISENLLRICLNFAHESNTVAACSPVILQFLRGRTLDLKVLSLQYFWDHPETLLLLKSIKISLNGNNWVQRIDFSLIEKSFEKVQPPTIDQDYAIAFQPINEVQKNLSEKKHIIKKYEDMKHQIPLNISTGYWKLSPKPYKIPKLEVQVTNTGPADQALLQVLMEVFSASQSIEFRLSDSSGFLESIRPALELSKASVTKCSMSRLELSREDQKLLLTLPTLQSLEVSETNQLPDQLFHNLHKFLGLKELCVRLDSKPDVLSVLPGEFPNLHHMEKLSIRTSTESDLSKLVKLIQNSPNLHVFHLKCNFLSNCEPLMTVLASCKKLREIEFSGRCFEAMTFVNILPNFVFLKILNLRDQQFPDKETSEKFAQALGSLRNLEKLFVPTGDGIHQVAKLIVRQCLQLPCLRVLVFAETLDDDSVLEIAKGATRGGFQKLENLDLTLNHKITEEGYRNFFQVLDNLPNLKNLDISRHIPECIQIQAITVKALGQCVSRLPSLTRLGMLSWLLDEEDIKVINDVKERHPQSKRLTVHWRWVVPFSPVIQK

Turning to “GFP-PrgJ (from UniProt P41785 1-101) (ligand)”, the stoichiometry N (ligand per NAIP) came out at 1.
